Measured values reported in patent US20210054094A1 (Hoffmann-La Roche, published 2021).
Read-outs that look alike come from different tables or passages of the source. Blank lines part the entries; values can stand above or below the binder they belong to.

Tests used:
Experiment in all cases: cell-based or functional assay
human GPRC5D [1] = molecular target: T1, human GPRC5D (human, UniProt Q9NZD1 1-345)
human GPRC5D [2] = molecular target: T1, human GPRC5D; remark: listed apart in the source
human GPRC5D [3] = molecular target: T1, human GPRC5D; remark: listed apart in the source

T1 sequence (Q9NZD1 whole entry): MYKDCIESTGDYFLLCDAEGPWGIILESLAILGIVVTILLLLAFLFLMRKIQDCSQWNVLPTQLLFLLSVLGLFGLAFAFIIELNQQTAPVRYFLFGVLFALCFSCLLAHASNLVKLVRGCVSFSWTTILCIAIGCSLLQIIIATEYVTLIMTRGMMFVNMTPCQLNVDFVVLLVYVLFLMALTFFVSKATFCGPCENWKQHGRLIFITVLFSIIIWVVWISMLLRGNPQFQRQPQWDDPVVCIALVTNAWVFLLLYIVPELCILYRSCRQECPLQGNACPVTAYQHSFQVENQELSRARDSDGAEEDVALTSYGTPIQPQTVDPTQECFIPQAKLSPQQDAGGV

CAR-J2 EC50 (PGLALA-CAR-J activation, L363 target cells) (human GPRC5D [1]): 2.65 ng/mL
B1: P1AE5733 (antibody, V domains shown)
VH: EVQLVESGGGLVQPGRSLKLSCAASGFSFSNYGMAWVRQAATKGLEWVASISTGGGNTYYRDSVKGRFIVSRDNAKNTQYLQMDSLRSEDTATYYCTRHDRGGLYWGQGVMVTVSS
VL: DIVMTQAPLSVSVTPGESASISCRSSKSLLHSNGITYVYWYFQKPGKSPQVLIYRMSNLASGVPDRFSGSGSETDFTLKISRVEAEDVGIYHCGQLLENPYTFGAGTELELK

CAR-J2 EC50 (PGLALA-CAR-J activation, L363 target cells) (human GPRC5D [2]): 6.3 ng/mL
B4: P1AE5720 (antibody, V domains shown)
VH: EVQLLESGGGLVQPGGSLRLSCAASGFTFSKYAMAWVRQAPGKGLEWVASISTGGVNTYYADSVKGRFTISRDNSKNTLYLQMNSLRAEDTAVYYCATHTGDYFDYWGQGTMVTVSS
VL: DIVMTQSPDSLAVSLGERATINCRASQSVSISGINLMNWYQQKPGQQPKLLIYHASILASGVPDRFSGSGSGTDFTLTISSLQAEDVAVYYCQQTRESPLTFGQGTRLEIK

CAR-J2 EC50 (PGLALA-CAR-J activation, L363 target cells) (human GPRC5D [2]): 37.8 ng/mL
B5: P1AE5726 (antibody, V domains shown)
VH: ELQLLESGGGLVQPGGSLRLSCAASGFTFSKYAMAWVRQAPGKGLEWVASISTGGVNTYYADSVKGRFTISRDNAKNTLYLQMNSLRAEDTAVYYCATHTGDYFDYWGQGTMVTVSS
VL: DIVMTQSPDSLAVSLGERATINCRASQSVSISGINLMNWYQQKPGQQPKLLIYHASILASGVPDRFSGSGSGTDFTLTISSLQAEDVAVYYCQQTRESPLTFGQGTRLEIK

CAR-J2 EC50 (PGLALA-CAR-J activation, L363 target cells) (human GPRC5D [2]): 6.3 ng/mL
B9: P1AE5727 (antibody, V domains shown)
VH: ELQLLESGGGLVQPGGSLRLSCAASGFTFSKYAMAWVRQAPGKGLEWVASISTGGVNTYYADSVKGRFTISRDNAKNTLYLQMNSLRAEDTAVYYCATHTGDYFDYWGQGTMVTVSS
VL: DIVMTQSPDSLAVSLGERATINCKSSQSVSISGINLMNWYQQKPGQQPKLLIYHASILASGVPDRFSGSGSGTDFTLTISSLQAEDVAVYYCQQTRESPLTFGQGTRLEIK

CAR-J2 EC50 (PGLALA-CAR-J activation, L363 target cells) (human GPRC5D [2]): 25 ng/mL
B13: P1AE5721 (antibody, V domains shown)
VH: EVQLLESGGGLVQPGGSLRLSCAASGFTFSKYAMAWVRQAPGKGLEWVASISTGGVNTYYADSVKGRFTISRDNSKNTLYLQMNSLRAEDTAVYYCATHTGDYFDYWGQGTMVTVSS
VL: DIVMTQSPDSLAVSLGERATINCKSSQSVSISGINLMNWYQQKPGQQPKLLIYHASILASGVPDRFSGSGSGTDFTLTISSLQAEDVAVYYCQQTRESPLTFGQGTRLEIK

The next lines start with the binder.

B2: P1AE5707 (antibody, V domains shown)
VH: EVQLLESGGGLVQPGGSLRLSCAASGFTFSKYAMAWVRQAPGKGLEWVASISTGGVNTYYRDSVKARFTISRDNSKNTLYLQMNSLRAEDTAVYYCATHTGDYFDYWGQGTMVTVSS
VL: DIVMTQSPDSLAVSLGERATINCRASQSVSISGINLMNWYQQKPGQQPKLLIYHASILASGVPDRFSGSGSGTDFTLTISSLQAEDVAVYYCQQTRESPLTFGQGTRLEIK
CAR-J2 EC50 (PGLALA-CAR-J activation, L363 target cells) (human GPRC5D [2]): 42.4 ng/mL

B3: P1AE5709 (antibody, V domains shown)
VH: EVQLLESGGGLVQPGGSLRLSCAASGFTFSKYAMAWVRQAPGKGLEWVASISTGGVNTYYRDSVKARFTISRDNSKNTLYLQMNSLRAEDTAVYYCATHTGDYFDYWGQGTMVTVSS
VL: EIVLTQSPGTLSLSPGERATLSCRASQSVSISGINLMNWYQQKPGQQPRLLIYHASILASGIPDRFSGSGSGTDFTLTISRLEPEDFAVYYCQQTRESPLTFGQGTRLEIK
CAR-J2 EC50 (PGLALA-CAR-J activation, L363 target cells) (human GPRC5D [2]): 59.4 ng/mL

B6: P1AE5716 (antibody, V domains shown)
VH: ELQLLESGGGLVQPGGSLRLSCAASGFTFSKYAMAWVRQAPGKGLEWVASISTGGVNTYYRDSVKARFTISRDNAKNTLYLQMNSLRAEDTAVYYCATHTGDYFDYWGQGTMVTVSS
VL: EIVLTQSPGTLSLSPGERATLSCRASQSVSISGINLMNWYQQKPGQQPRLLIYHASILASGIPDRFSGSGSGTDFTLTISRLEPEDFAVYYCQQTRESPLTFGQGTRLEIK
CAR-J2 EC50 (PGLALA-CAR-J activation, L363 target cells) (human GPRC5D [2]): 3.3 ng/mL

B7: P1AE5714 (antibody, V domains shown)
VH: ELQLLESGGGLVQPGGSLRLSCAASGFTFSKYAMAWVRQAPGKGLEWVASISTGGVNTYYRDSVKARFTISRDNAKNTLYLQMNSLRAEDTAVYYCATHTGDYFDYWGQGTMVTVSS
VL: DIVMTQSPDSLAVSLGERATINCRASQSVSISGINLMNWYQQKPGQQPKLLIYHASILASGVPDRFSGSGSGTDFTLTISSLQAEDVAVYYCQQTRESPLTFGQGTRLEIK
CAR-J2 EC50 (PGLALA-CAR-J activation, L363 target cells) (human GPRC5D [2]): 5.5 ng/mL

B8: P1AE5715 (antibody, V domains shown)
VH: ELQLLESGGGLVQPGGSLRLSCAASGFTFSKYAMAWVRQAPGKGLEWVASISTGGVNTYYRDSVKARFTISRDNAKNTLYLQMNSLRAEDTAVYYCATHTGDYFDYWGQGTMVTVSS
VL: DIVMTQSPDSLAVSLGERATINCKSSQSVSISGINLMNWYQQKPGQQPKLLIYHASILASGVPDRFSGSGSGTDFTLTISSLQAEDVAVYYCQQTRESPLTFGQGTRLEIK
CAR-J2 EC50 (PGLALA-CAR-J activation, L363 target cells) (human GPRC5D [2]): 3.6 ng/mL

B10: P1AE5713 (antibody, V domains shown)
VH: EVQLLESGGGLVQPGGSLRLSCAASGFTFSKYAMAWVRQAPGKGLEWVASISTGGVNTYYRDSVKARFTISRDNSKNTLYLQMNSLRAEDTAVYYCATHTGDYFDYWGQGTMVTVSS
VL: DIQMTQSPSSLSASVGDRVTITCRASQSVSISGINLMNWYQQKPGQQPKLLIYHASILASGVPSRFSGSGSGTDFTLTISSLQPEDFATYYCQQTRESPLTFGQGTRLEIK
CAR-J2 EC50 (PGLALA-CAR-J activation, L363 target cells) (human GPRC5D [2]): 76.9 ng/mL

B11: P1AE5710 (antibody, V domains shown)
VH: EVQLLESGGGLVQPGGSLRLSCAASGFTFSKYAMAWVRQAPGKGLEWVASISTGGVNTYYRDSVKARFTISRDNSKNTLYLQMNSLRAEDTAVYYCATHTGDYFDYWGQGTMVTVSS
VL: EIVLTQSPGTLSLSPGERATLSCRASQSVSISGINLMNWYQQKPGQQPKLLIYHASILASGIPDRFSGSGSGTDFTLTISRLEPEDFAVYYCQQTRESPLTFGQGTRLEIK
CAR-J2 EC50 (PGLALA-CAR-J activation, L363 target cells) (human GPRC5D [2]): 3.5 ng/mL

B12: P1AE5708 (antibody, V domains shown)
VH: EVQLLESGGGLVQPGGSLRLSCAASGFTFSKYAMAWVRQAPGKGLEWVASISTGGVNTYYRDSVKARFTISRDNSKNTLYLQMNSLRAEDTAVYYCATHTGDYFDYWGQGTMVTVSS
VL: DIVMTQSPDSLAVSLGERATINCKSSQSVSISGINLMNWYQQKPGQQPKLLIYHASILASGVPDRFSGSGSGTDFTLTISSLQAEDVAVYYCQQTRESPLTFGQGTRLEIK
CAR-J2 EC50 (PGLALA-CAR-J activation, L363 target cells) (human GPRC5D [2]): 456 ng/mL

B14: 10B10-TCB (bispecific antibody)
light 1: DIQLTQSPHSLSASLGETVSIECLASEGISNYLAWFHQKPGKSPQLLIYYASSLQDGVPSRFSGSGSGTQYSLKISNMQPEDEGVYYCQQGYKYPLTFGSGTKLEIKRTVAAPSVFIFPPSDRKLKSGTASVVCLLNNFYPREAKVQWKVDNALQSGNSQESVTEQDSKDSTYSLSSTLTLSKADYEKHKVYACEVTHQGLSSPVTKSFNRGEC
light 2: EVQLLESGGGLVQPGGSLRLSCAASGFTFSTYAMNWVRQAPGKGLEWVSRIRSKYNNYATYYADSVKGRFTISRDDSKNTLYLQMNSLRAEDTAVYYCVRHGNFGNSYVSWFAYWGQGTLVTVSSASVAAPSVFIFPPSDEQLKSGTASVVCLLNNFYPREAKVQWKVDNALQSGNSQESVTEQDSKDSTYSLSSTLTLSKADYEKHKVYACEVTHQGLSSPVTKSFNRGEC
heavy 1: EVQLVESGGGLVQPGRSMKLSCAASGFTFTNFYMAWVRQAPTKALEWVASINTGGGYTYYRDSVKGRFTVSRDNTRSTLYLQMDSLRSEETATYYCARHLTYYGRYYYFDYWGQGVMVTVSSASTKGPSVFPLAPSSKSTSGGTAALGCLVEDYFPEPVTVSWNSGALTSGVHTFPAVLQSSGLYSLSSVVTVPSSSLGTQTYICNVNHKPSNTKVDEKVEPKSCDKTHTCPPCPAPEAAGGPSVFLFPPKPKDTLMISRTPEVTCVVVDVSHEDPEVKFNWYVDGVEVHNAKTKPREEQYNSTYRVVSVLTVLHQDWLNGKEYKCKVSNKALGAPIEKTISKAKGQPREPQVCTLPPSRDELTKNQVSLSCAVKGFYPSDIAVEWESNGQPENNYKTTPPVLDSDGSFFLVSKLTVDKSRWQQGNVFSCSVMHEALHNHYTQKSLSLSPGK
heavy 2: not shown
EC50 of in vitro killing, AMO-1 cells (human GPRC5D [3]): 84 pM
EC50 of in vitro killing, EJM cells (human GPRC5D [3]): 79 pM
EC50 of in vitro killing, L363 cells (human GPRC5D [3]): 34 pM
EC50 of in vitro killing, MOLP-2 cells (human GPRC5D [3]): 160 pM
EC50 of in vitro killing, NCI-H929 cells (human GPRC5D [3]): 56 pM
EC50 of in vitro killing, OPM-2 cells (human GPRC5D [3]): 28 pM
EC50 of in vitro killing, RPMI cells (human GPRC5D [3]): 965 pM

B15: B72-TCB (bispecific antibody, human IgG1, kappa, L234A L235A)
heavy 1: not shown
light 1: EVQLVESGGGLVQPGGSLRLSCAASGFTFNTYAMNWVRQAPGKGLEWVARIRSKYNNYATYYAASVKGRFTISRDDSKNSLYLQMNSLKTEDTAVYYCARHGNFGNSYVSWFAYWGQGTLVTVSSASVAAPSVFIFPPSDEQLKSGTASVVCLLNNFYPREAKVQWKVDNALQSGNSQESVTEQDSKDSTYSLSSTLTLSKADYEKHKVYACEVTHQGLSSPVTKSFNRGEC
heavy 2: QVQLVQSGAEVKKPGASVKVSCKASGYSFTGYTMNWVRQAPGQGLEWMGLINPYNSDTNYAQKLQGRVTMTTDTSTSTAYMELRSLRSDDTAVYYCARVALRVALDYWGQGTLVTVSSASTKGPSVFPLAPSSKSTSGGTAALGCLVEDYFPEPVTVSWNSGALTSGVHTFPAVLQSSGLYSLSSVVTVPSSSLGTQTYICNVNHKPSNTKVDEKVEPKSCDKTHTCPPCPAPEAAGGPSVFLFPPKPKDTLMISRTPEVTCVVVDVSHEDPEVKFNWYVDGVEVHNAKTKPREEQYNSTYRVVSVLTVLHQDWLNGKEYKCKVSNKALGAPIEKTISKAKGQPREPQVCTLPPSRDELTKNQVSLSCAVKGFYPSDIAVEWESNGQPENNYKTTPPVLDSDGSFFLVSKLTVDKSRWQQGNVFSCSVMHEALHNHYTQKSLSLSPGK
light 2: DIQMTQSPSSLSASVGDRVTITCKASQNVATHVGWYQQKPGKAPKRLIYSASYRYSGVPSRFSGSGSGTEFTLTISNLQPEDFATYYCQQYNRYPYTFGQGTKLEIKRTVAAPSVFIFPPSDRKLKSGTASVVCLLNNFYPREAKVQWKVDNALQSGNSQESVTEQDSKDSTYSLSSTLTLSKADYEKHKVYACEVTHQGLSSPVTKSFNRGEC
EC50 of in vitro killing, AMO-1 cells (human GPRC5D [3]): 109 pM
EC50 of in vitro killing, EJM cells (human GPRC5D [3]): 60 pM
EC50 of in vitro killing, L363 cells (human GPRC5D [3]): 58 pM
EC50 of in vitro killing, MOLP-2 cells (human GPRC5D [3]): 124 pM
EC50 of in vitro killing, NCI-H929 cells (human GPRC5D [3]): 58 pM
EC50 of in vitro killing, OPM-2 cells (human GPRC5D [3]): 171 pM
EC50 of in vitro killing, RPMI cells (human GPRC5D [3]): 193 pM

B16: P1AE5706 (antibody, V domains shown)
VH: ELQLEQSGGGLVQPGGSLTLSCAASGFTFSKYAMAWVRQAPTKGLEWVASISTGGVNTYYRDSVKARFTISRDNAKNTQYLQMDSLRSEDTATYYCATHTGDYFDYWGQGVMVTVSS
VL: DIVLTQSPALAVSPGQRATISCRASQSVSISGINLMNWYQQKPGQQPKLLIYHASILASGIPTRFSGSGSGTDFTLTIDPVQADDIATYYCQQTRESPLTFGSGTNLEIK
CAR-J2 EC50 (PGLALA-CAR-J activation, L363 target cells) (human GPRC5D [2]): 3.9 ng/mL
